Experimental data as given in patent publication US6500431B1, “Inhibitors of angiogenesis and tumor growth” (University of Southern California, priority 1998, dated 2002).
Entries after “also recorded” stand apart in the source; their conditions may differ.

Tests used:
[1] = system: CD34+/Flk-1+ cells from cord blood; test: Growth of CD34+/Flk-1+ progenitors on fibronectin coated dishes; assay type: cell-based, human; conditions: 50 ng/mL Saposin B
Source text: A bone marrow derived human CD34+/Flk-1+ progenitor cell can be mobilized into the blood stream in response to tumor induced signals such as VEGF and cytokine production. These cells can target to sites of angiogenesis where they mature into activated endothelial cells and thus contribute to the generation of new blood vessels at the tumor site. By blocking the production of these cells or by targeting these cells (i.e., the CD34+/Flk-1+ progenitors and the activated endothelial cell they can become), the angiogenesis/vasculogenesis required for tumor growth can be reduced or halted. […] The adherent cells take on a spindle-shaped morphology characteristic of the activated vascular endothelial cells typical of the angiogenic process. These cells express endothelial-specific markers including factor VIII, ulex europaeus agglutinin-1 (UEA-1), endothelial constitutive nitric oxide synthase (ecNOS), and E selectin. Further, when these cells (peripheral blood Flk+ progenitors) are infused into mice, they incorporate into newly formed blood vessels at site of injury. These observation identify CD34+/Flk-1+ bone marrow derived progenitors as a putative precursor to vascular endothelial cells. Preventing these cells from colonizing at distal sites of angiogenesis in tumors has enormous implication for the treatment of tumors. […]

[2] = system: chicken allantoic membrane (CAM); test: Chicken allantoic membrane (CAM) angiogenesis assay; assay type: in vivo; conditions: induced by VEGF or bFGF; 48 hours
Description: In order to test anti-angiogenic activity, chicken allantoic membrane (CAM) assays were performed with recombinant Saposin B. Ten day old fertilized chicken eggs were prepared for assay by creating a window in the egg shell, and placing filter paper discs saturated with VEGF or bFGF as positive controls, test compounds, or carrier buffer (negative controls) on the allantoic membrane. The membranes were harvested after 48 hours and analyzed using an Olympus stereomicroscope. The number of branching blood vessels that infiltrated under the discs were counted and photographed. Eight CAMs were studied for test group, and the experiments were repeated at least twice.

[3] = system: Human bone marrow cells and peripheral blood mononuclear cells; test: Stem cell clonogenic assays in methylcellulose; assay type: cell-based
Description: Human bone marrow cells and peripheral blood mononuclear cells were harvested from a subject after the administration of high doses of cyclophosphamide and G-CSF. Stem cell clonogenic assays in methylcellulose were performed with IL-3, erythropoietin, and VEGF (10 ng/mL, and 100 ng/mL). VEGF was used to determine if there are progenitor cells with self replication capacity but without adherence to extracellular matrix such as fibronectin. It was also desirable to determine if Saposin B was toxic to endothelial cell specific progenitors for hematopoietic (myeloid or erythroid) lineage cells.
These colonies contained mixture of cells indicating more than one cell lineage generated in response to VEGF. The colonies also contained spindle shaped cells which mark the presence of VEGF receptors.

B1: Saposin B: polypeptide fragment of Prosaposin (positions 190 to 269), SEQ ID NO:2; recombinantly expressed (protein)
chain: GDVCQDCIQMVTDIQTAVRTNSTFVQALVEHVKEECDRLGPGMADICKNYISQYSEIAIQMMMHMQPKEICALVGFCDEVK
CD34+/Flk-1+ progenitor growth [1]: inhibited
angiogenesis (number of blood vessel branches) in CAMs [2]: effectively blocked angiogenesis; also recorded: inhibited by Saposin B in a dose-dependent fashion
cytotoxic effect on colonies developed with IL-3 or erythropoietin [3]: no cytotoxic effect
effect on colonies generated with VEGF ([3]; VEGF 10 ng/mL and 100 ng/mL): loss of spindle shaped cells
